The target in the assay is purified recombinant PAPP-A free of STC2 (apo PAPP-A) (human) (UniProt Q13219). Nature of the assay: MST.
A word on the Kd: it is a measure of binding affinity in units of concentration. In the case of “4P3, peptide from the linker region of IGFBP4 (from UniProt P22692)”, the Kd was determined as 162 µM. In the case of “4P1, peptide from the linker region of IGFBP4 (from UniProt P22692)”, the Kd was determined as 1.73 µM. For the substance “5P1, peptide from the linker region of IGFBP5 (from UniProt P24593)”, the Kd was 4.43 µM. As for “5P2, peptide from the linker region of IGFBP5 (from UniProt P24593)”, the Kd is 17.3 µM. As to “5P3, peptide from the linker region of IGFBP5 (from UniProt P24593)”, the Kd was 38 µM.

Consider “4P2, peptide from the linker region of IGFBP4 (from UniProt P22692)”, for which the Kd was determined as 27.5 µM.

For the origin of these results see publication PMC9780223.
